Data on four molecules can be found in patent publication US20240269303A1 (RESEARCH DEVELOPMENT FOUNDATION, published 2024).

Bounds are passed on as bounds.

Assay [1] concerns the target T1, LGR5 (UniProt O75473 22-907, limits assumed).
T1 sequence (looked up): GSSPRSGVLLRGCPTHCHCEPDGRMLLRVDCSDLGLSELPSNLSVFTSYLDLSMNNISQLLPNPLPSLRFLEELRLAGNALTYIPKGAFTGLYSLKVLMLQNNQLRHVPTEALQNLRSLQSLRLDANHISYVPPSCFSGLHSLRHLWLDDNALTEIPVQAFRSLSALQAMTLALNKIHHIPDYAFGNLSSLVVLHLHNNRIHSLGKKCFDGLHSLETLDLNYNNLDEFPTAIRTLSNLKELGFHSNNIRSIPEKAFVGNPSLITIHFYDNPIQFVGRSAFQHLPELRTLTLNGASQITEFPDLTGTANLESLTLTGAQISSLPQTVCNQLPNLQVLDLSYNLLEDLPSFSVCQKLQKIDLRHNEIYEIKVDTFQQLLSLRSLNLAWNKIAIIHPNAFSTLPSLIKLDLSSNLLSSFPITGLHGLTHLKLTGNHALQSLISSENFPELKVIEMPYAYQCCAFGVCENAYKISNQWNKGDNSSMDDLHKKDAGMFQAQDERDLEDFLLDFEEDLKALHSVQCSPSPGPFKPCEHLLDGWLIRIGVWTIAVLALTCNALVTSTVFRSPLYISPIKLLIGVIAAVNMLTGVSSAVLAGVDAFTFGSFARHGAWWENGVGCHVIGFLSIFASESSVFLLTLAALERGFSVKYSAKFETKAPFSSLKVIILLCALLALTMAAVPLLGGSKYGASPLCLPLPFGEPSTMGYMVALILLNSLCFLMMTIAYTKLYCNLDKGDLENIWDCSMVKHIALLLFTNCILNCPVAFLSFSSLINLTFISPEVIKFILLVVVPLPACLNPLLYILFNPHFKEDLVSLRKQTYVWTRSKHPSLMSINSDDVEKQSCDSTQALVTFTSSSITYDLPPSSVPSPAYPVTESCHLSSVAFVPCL
The experiment in a line: cell-based or functional assay.

Assay [2] has as its target T1, LGR5. The experiment in a line: cell-based or functional assay. This is another data set of the same source.

B1: FcF2Δlinker-MMAE (Fc fusion)
chain: EPKSCDKTHTCPPCPAPELLGGPSVFLFPPKPKDTLMISRTPEVTCVVVDVSHEDPEVKFNWYVDGVEVHNAKTKPREEQYNSTYRVVSVLTVDHHDWLNGKEYKCKVSNKALPAPIEKTISKAKGQPREPQVYTLPPSRDELTKNQVSLTCLVKGFYPSDIAVEWESNGQPENNYKTTPPVLDSDGSFFLYSKLTVDKSRWQQGNVFSCSVMHEALHSHYTQKSLSLSPGKSRGIKGKRQRRISAEGSQACAKGCELCSEVNGCLKCSPKLFILLERNDIRQVGVCLPSCPPGYFDARNPDMNKCIKCKIEHCEACFSHNFCTKCKEGLYLHKGRCYPACPEGSSAANGTMECSSPLPETGGG
modifications: C-terminal GGG carries valine-citrulline-PAB-MMAE
Consider B1, for which, in the assay with LGR5 [1], the “IC50 (read off the curve), growth inhibition of OVCAR8/LGR5 cells [panel ExpiCHO FcF2-MMAE linker deletion batch #1]” value is roughly 4 nM.

B2: FcF2-deruxtecan (Fc fusion)
chain: EPKSCDKTHTCPPCPAPELLGGPSVFLFPPKPKDTLMISRTPEVTCVVVDVSHEDPEVKFNWYVDGVEVHNAKTKPREEQYNSTYRVVSVLTVDHHDWLNGKEYKCKVSNKALPAPIEKTISKAKGQPREPQVYTLPPSRDELTKNQVSLTCLVKGFYPSDIAVEWESNGQPENNYKTTPPVLDSDGSFFLYSKLTVDKSRWQQGNVFSCSVMHEALHSHYTQKSLSLSPGKGGGGSGGGGSSRGIKGKRQRRISAEGSQACAKGCELCSEVNGCLKCSPKLFILLERNDIRQVGVCLPSCPPGYFDARNPDMNKCIKCKIEHCEACFSHNFCTKCKEGLYLHKGRCYPACPEGSSAANGTMECSSPGGGGSGGGGSLPETGGGC
modifications: C-terminal Cys of GGGC carries maleimide-GGFG-deruxtecan
With B2, in the assay with LGR5 [2], the “IC50 of growth inhibition, OVCAR8/EV cells (LGR5-poor control; CCK8, 120 h)” value was 9.04 nM; the “IC50 of growth inhibition, OVCAR8/LGR5 cells (CCK8, 120 h)” value amounted to 0.753 nM; the “selectivity, OVCAR8/LGR5 against OVCAR8/EV” value stood at 12 fold.

B3: FcST4-MMAE (Fc fusion)
chain: EPKSCDKTHTCPPCPAPELLGGPSVFLFPPKPKDTLMISRTPEVTCVVVDVSHEDPEVKFNWYVDGVEVHNAKTKPREEQYNSTYRVVSVLTVDHHDWLNGKEYKCKVSNKALPAPIEKTISKAKGQPREPQVYTLPPSRDELTKNQVSLTCLVKGFYPSDIAVEWESNGQPENNYKTTPPVLDSDGSFFLYSKLTVDKSRWQQGNVFSCSVMHEALHSHYTQKSLSLSPGKGGGGSGGGGSSRGIKGKRQRRISAEGSQACAKGCELCSEVNGCLKCSPKLFILLERNDIRQVGVCLPSCPPGYFDARNPDMNKCIKCKIEHCEACFSHNFCTKCKEGLYLHKGRCYPACPEGSSAANGTMECSSPGGGGSGGGGSSRGIKGKRQRRISAEGSQACAKGCELCSEVNGCLKCSPKLFILLERNDIRQVGVCLPSCPPGYFDARNPDMNKCIKCKIEHCEACFSHNFCTKCKEGLYLHKGRCYPACPEGSSAANGTMECSSPGGGGSGGGGSLPETGGG
modifications: C-terminal GGG carries val-cit-PAB-MMAE (sortase reaction with G3-val-cit-PAB-MMAE; GG-8xHis removed)
For B3, the “IC50 of cytotoxicity (OVCAR8 empty vector and LGR5-overexpressing cells; the cell line of each end is not stated)” value with LGR5 [2] was in the range of 1.9 to 3.8 nM.

B4: FcF2-PNU159682 (Fc fusion)
chain: EPKSCDKTHTCPPCPAPELLGGPSVFLFPPKPKDTLMISRTPEVTCVVVDVSHEDPEVKFNWYVDGVEVHNAKTKPREEQYNSTYRVVSVLTVDHHDWLNGKEYKCKVSNKALPAPIEKTISKAKGQPREPQVYTLPPSRDELTKNQVSLTCLVKGFYPSDIAVEWESNGQPENNYKTTPPVLDSDGSFFLYSKLTVDKSRWQQGNVFSCSVMHEALHSHYTQKSLSLSPGKGGGGSGGGGSSRGIKGKRQRRISAEGSQACAKGCELCSEVNGCLKCSPKLFILLERNDIRQVGVCLPSCPPGYFDARNPDMNKCIKCKIEHCEACFSHNFCTKCKEGLYLHKGRCYPACPEGSSAANGTMECSSPGGGGSGGGGSLPET
modifications: PNU159682 (anthracycline derivative) joined to the C-terminus by sortase A; the linker is not described
Regarding B4, in the assay with LGR5 [2], the “IC50 of growth inhibition, OVCAR8/EV cells (LGR5-poor control)” value was greater than 3 nM; the “IC50 of growth inhibition, OVCAR8/LGR5 cells” value is 0.3 nM; the “IC50 ratio, OVCAR8/EV to OVCAR8/LGR5” value is roughly 10 ratio.
